Measurements: IntAct's records for PubMed 24879152

B1: Next to BRCA1 gene 1 protein (Homo sapiens), Q14596 (parent)
chain: MEPQVTLNVTFKNEIQSFLVSDPENTTWADIEAMVKVSFDLNTIQIKYLDEENEEVSINSQGEYEEALKMAVKQGNQLQMQVHEGHHVVDEAPPPVVGAKRLAARAGKKPLAHYSSLVRVLGSDMKTPEDPAVQSFPLVPCDTDQPQDKPPDWFTSYLETFREQVVNETVEKLEQKLHEKLVLQNPSLGSCPSEVSMPTSEETLFLPENQFSWHIACNNCQRRIVGVRYQCSLCPSYNICEDCEAGPYGHDTNHVLLKLRRPVVGSSEPFCHSKYSTPRLPAALEQVRLQKQVDKNFLKAEKQRLRAEKKQRKAEVKELKKQLKLHRKIHLWNSIHGLQSPKSPLGRPESLLQSNTLMLPLQPCTSVMPMLSAAFVDENLPDGTHLQPGTKFIKHWRMKNTGNVKWSADTKLKFMWGNLTLASTEKKDVLVPCLKAGHVGVVSVEFIAPALEGTYTSHWRLSHKGQQFGPRVWCSIIVDPFPSEESPDNIEKGMISSSKTDDLTCQQEETFLLAKEERQLGEVTEQTEGTAACIPQKAKNVASERELYIPSVDLLTAQDLLSFELLDINIVQELERVPHNTPVDVTPCMSPLPHDSPLIEKPGLGQIEEENEGAGFKALPDSMVSVKRKAENIASVEEAEEDLSGTQFVCETVIRSLTLDAAPDHNPPCRQKSLQMTFALPEGPLGNEKEEIIHIAEEEAVMEEEEDEEDEEEEDELKDEVQSQSSASSEDYIIILPECFDTSRPLGDSMYSSALSQPGLERGAEGKPGVEAGQEPAEAGERLPGGENQPQEHSISDILTTSQTLETVPLIPEVVELPPSLPRSSPCVHHHGSPGVDLPVTIPEVSSVPDQIRGEPRGSSGLVNSRQKSYDHSRHHHGSSIAGGLVKGALSVAASAYKALFAGPPVTAQPIISEDQTAALMAHLFEMGFCDRQLNLRLLKKHNYNILQVVTELLQLNNNDWYSQRY
B2: Glycogen synthase kinase-3 alpha (Homo sapiens), P49840 (parent)
chain: MSGGGPSGGGPGGSGRARTSSFAEPGGGGGGGGGGPGGSASGPGGTGGGKASVGAMGGGVGASSSGGGPGGSGGGGSGGPGAGTSFPPPGVKLGRDSGKVTTVVATLGQGPERSQEVAYTDIKVIGNGSFGVVYQARLAETRELVAIKKVLQDKRFKNRELQIMRKLDHCNIVRLRYFFYSSGEKKDELYLNLVLEYVPETVYRVARHFTKAKLTIPILYVKVYMYQLFRSLAYIHSQGVCHRDIKPQNLLVDPDTAVLKLCDFGSAKQLVRGEPNVSYICSRYYRAPELIFGATDYTSSIDVWSAGCVLAELLLGQPIFPGDSGVDQLVEIIKVLGTPTREQIREMNPNYTEFKFPQIKAHPWTKVFKSRTPPEAIALCSSLLEYTPSSRLSPLEACAHSFFDELRCLGTQLPNNRPLPPLFNFSAGELSIQPSLNAILIPPHLRSPAGTTTLTPSSQALTETPTSSDWQSTDATPTLTNSS
partner: B1 chain

Variants of: B1
Settings: with gsk3a_human GSK3A

| Variant | effect of a mutation on the interaction |
| --- | --- |
| T581A;T586A;S590A | decreasing interaction strength |
| T581A | decreasing interaction strength |

Now from value to variant:

| effect of a mutation on the interaction | Variant |
| --- | --- |
| with no effect | T586A;S590A |
| with no effect | T586A |
| with no effect | S590A |

Variants of: B1
Settings: with gsk3b_human GSK3B

| effect of a mutation on the interaction | Variant |
| --- | --- |
| disrupting interaction strength | T581A;T586A;S590A |
| with no effect | T581A |

Variants of: B1
Settings: with ubc_human UBC

| effect of a mutation on the interaction | Variant |
| --- | --- |
| with no effect | T586E;S590E |
| with no effect | T586A;S590A |

Variants of: B1
Settings: with mlp3b_human MAP1LC3B

| effect of a mutation on the interaction | Variant |
| --- | --- |
| with no effect | T586E;S590E |
| with no effect | T586A;S590A |

Variants of: B1
Settings: with gbrap_human GABARAP

| effect of a mutation on the interaction | Variant |
| --- | --- |
| with no effect | T586E;S590E |
| with no effect | T586A;S590A |

Variants of: B1
Settings: with mlp3b_mouse Map1lc3b

| effect of a mutation on the interaction | Variant |
| --- | --- |
| with no effect | T586E;S590E |
| with no effect | T586A;S590A |

Variants of: B2
Settings: with nbr1_human NBR1, Q14596

| effect of a mutation on the interaction | Variant |
| --- | --- |
| with no effect | S21A |
| disrupting interaction strength | K148A |
